Test results: patent US20140050727A1 (MOCHIDA PHARMACEUTICAL, published 2014)

Tests used:
Assay in all cases: competitive EIA on immobilized 356(CHO) with HRP-labeled F1024 antibody
[1] = molecular target: T1, amino acid-substituted soluble human CD14 Q295A (human, UniProt P08571 20-345)
T1 construct: mature; Expressed in COS-1, purified on a 3C10 column
T1 sequence (looked up): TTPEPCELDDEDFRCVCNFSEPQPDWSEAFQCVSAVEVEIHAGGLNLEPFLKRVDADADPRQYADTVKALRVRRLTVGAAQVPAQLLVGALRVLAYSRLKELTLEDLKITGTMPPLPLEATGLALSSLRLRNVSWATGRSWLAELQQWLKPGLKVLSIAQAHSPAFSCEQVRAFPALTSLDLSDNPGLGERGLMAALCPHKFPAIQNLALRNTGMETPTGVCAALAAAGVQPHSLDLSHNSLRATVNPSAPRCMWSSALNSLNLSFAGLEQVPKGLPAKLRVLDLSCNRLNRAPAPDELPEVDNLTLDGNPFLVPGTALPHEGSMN
Procedure: (§1) A competitive experiment was conducted by the following procedure to confirm the reactivity of each soluble human amino acid-substituted CD14 with the F1024 antibody. […] After allowing to stand overnight at 4° C. and washing 3 times with the PBS containing 0.05% Tween 20, 200 μL/well of PBS⁻ containing 2% StabilGuard (SurModics, Inc.) was added to the well, and the solution was incubated at 37° C. for 30 minutes and stored at 4° C. In the meanwhile, amino acid-substituted soluble human CD14 that had been purified in Example 6-3) was diluted to 2 to 0.02 μg/mL with PBS⁻ containing 0.1% BSA. HRP-labeled F1024 antibody was diluted to 2 μg/mL with PBS⁻ containing 0.1% BSA, and the diluted HRP-labeled F1024 antibody was mixed with an equal amount of the human amino acid-substituted CD14 (25 μL+25 μL). Next, the solution was discarded from the wells of the plate having the soluble CD14 immobilized, and 50 μL/well of a mixed solution of amino acid-substituted CD14 and HRP-labeled F1024 was added. After the incubation at 37° C. for 2 hours, the plate was washed 5 times with PBS⁻ containing 0.05% Tween 20, and 50 μL/well of TMB solution (BioFX) was added to the well as the chromogenic substrate. The reaction was allowed to proceed at room temperature for 5 minutes, the reaction was terminated by adding 50 μL/well of 1M hydrochloric acid solution. Absorbance at 450 nm was measured with a plate spectrophotometer.

[2] = molecular target: T2, amino acid-substituted soluble human CD14 P294/296A (human, UniProt P08571 20-345)
T2 construct: mature; Expressed in COS-1, purified on a 3C10 column
T2 sequence (looked up): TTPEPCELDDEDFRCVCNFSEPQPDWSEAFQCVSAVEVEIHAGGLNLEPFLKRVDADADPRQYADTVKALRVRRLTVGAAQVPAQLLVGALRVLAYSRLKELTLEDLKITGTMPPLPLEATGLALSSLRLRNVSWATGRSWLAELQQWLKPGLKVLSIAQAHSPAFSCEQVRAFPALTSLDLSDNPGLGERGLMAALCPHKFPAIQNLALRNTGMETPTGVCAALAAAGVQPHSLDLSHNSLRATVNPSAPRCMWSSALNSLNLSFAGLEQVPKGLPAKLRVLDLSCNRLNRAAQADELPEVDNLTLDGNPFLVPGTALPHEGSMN
Procedure: as §1

[3] = molecular target: T3, amino acid-substituted soluble human CD14 P294H (human, UniProt P08571 20-345)
T3 construct: mature; Expressed in COS-1, purified on a 3C10 column
T3 sequence (looked up): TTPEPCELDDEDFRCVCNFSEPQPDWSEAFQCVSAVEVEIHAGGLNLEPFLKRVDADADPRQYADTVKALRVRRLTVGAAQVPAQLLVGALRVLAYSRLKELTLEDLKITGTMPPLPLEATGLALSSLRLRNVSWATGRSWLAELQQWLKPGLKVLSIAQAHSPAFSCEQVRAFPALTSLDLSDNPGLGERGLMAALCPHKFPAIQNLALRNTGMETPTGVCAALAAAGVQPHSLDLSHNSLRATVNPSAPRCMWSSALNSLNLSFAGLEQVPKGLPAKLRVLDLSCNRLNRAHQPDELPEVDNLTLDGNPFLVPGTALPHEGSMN
Procedure: as §1

Measured: binding result

B1: F1024 antibody (antibody, V domains shown)
VH: QIQLVQSGPELKKPGESVKISCKASGYTFTDYAMNWVKQAPGNGLKWMGWINTQTGKPTYADDFKQRFVFSLETSASTAYLQINNLNIEDTATYFCTRSTFYYSSYIYGWYFDFWGPGTSVTVSS
VL: DIVMTQSPTSISISVGERVTMNCKASQNVGSNVDWYQQKTGQSPKLLIYKASNRYTGVPDRFTGSGSGTDFTFTISNMQAVDLAVYYCMQSNTNPPWTFGGGTKLELKRT
notes: also called antibody F1024; F1024-1-3 rat antibody
no binding (tested: 2 to 0.02 µg/mL): all assays above
